Experiment: label from the status in PepcDB records

Sequence | protein production
MNFGTQIKMIRKENQLTQEQFGNQLNISRQTVSTWENNRYLPDIEMLVEIAKTFNLSLDDLILGNSVVKDKLVNDTKFVKRIRLSILSMIFILIAIVSALLFTSLPSHVSQDGVLQEPWFLVILAFFSLLTGLIIGMVNLVLIFINYYKYARRRK | failed
MNFKLNNTLSNEINTLIIGIPEHLNQLERISFNHIDITESLERLKHQHIIGSKVGKIYTTAFDVQDQTYRLITVGLGNLKTRSYQDMLKIWGHLFQYIKSEHIEDTYLLMDSFISKYDQLSDVLMACGIQSERATYEFDHYKSSKKAPFKTNLNLISESLIELDFIHEGISIGQSINLARDFSNMPPNVLTPQTFAEDIVNHFKNTKVKVDVKDYDTLVSEGFGLLQAVGKGSKHKPRLVTITYNGKDKDEAPIALVGKGITYDSGGYSIKTKNGMATMKFDMCGAANVVGIIEAASRLQLPVNIVGVLACAENMINEASMKPDDVFTALSGETVEVMNTDAEGRLVLADAVFYANQYQPSVIMDFATLTGAAIVALGDDKAAAFESNSKVILNDILQISSEVDEMVFELPITATERASIKHSDIADLVNHTNGQGKALFAASFVTHFSGQTPHIHFDIAGPATTNKASYNGPKGPTGFMIPTIVQWLKQQ | not failed
MNGDDDAKRSGKRLPDQPAKTQRTKGPVSFPSTVSLASLCEEGATASSNLDLLASCSSVQGSEDCDCEGHQPESERRLKRPRQAPWAAEPANQRRPPFDHGNSESIPPAGVQSQGTSASNGTDSSERKSTEATWSRQSVDCSTAEKLAGNLCANQVSAERSGQFYTKVNELLHDLHKERVSRQCRSPHES | failed
MNGDFYVDTTCIDCDTCRWMTPEVFHRVDEMSAVYHQPTNETERLAALQALLSCPTSSIGTVEKLEHHHHHH | failed
MNGDRTGLGSTRLGRIAIAGGKQLLGKINSARKNFPMKIFLLLLGFYTANALATILGQTGDWDVLVAGIVVAAIEGIGMLMYKKPSSSMFSGKLQSFVVFMNFWKAGVCLGLFVDAFKLGS | failed
MNGRVDYLVTEEEINLTRGPSGLGFNIVGGTDQQYVSNDSGIYVSRIKENGAAALDGRLQEGDKILSVNGQDLKNLLHQDAVDLFRNAGYAVSLRVQHRLQVQNGPI | not failed
MNGTELRETLEDLIKEVVQASREALDTQGELNERNEAALRTLEAQWRQRLIEELHEQGSLRVVLCRTDLLVPGSGATGTTTTNRTDPLRYVYETLRQRDPRERRRSLPPERSSQSSELEDTGTDSGEALSSGDDDDEISQVAGQPEPETANYVLSQYERVLAPSTNKQRIWRVFLRDAMVHINGQDLLLNQLQCQFDW | not failed
MNGVFAINFFVMALMLALYISESFGAIILLFFYKDGSKKVTPYVVPIWELTGTFIAFWVVTSDFAYPSILVPAAFIYAVPLLILLIAFIGRNAFIIFGEFIKKGFIDEKAMYKIFSIFECIFCLVFVIFASSVVTGGGVILSKLAFNVGKWATTPGDVLFVVGTVIFIFGLSFIFYGLEKYKLHSIVLTYIGIILAVVAFVQIHLSISTVPLSPVLAIPILIGILAPILFYIDSTRKIVENKIFFLALLVISVYPFYSLVYPKFFGGTLPVSAFLTNSPMATAYFYITLGGGILLIAMLAYMVYVANGFNKMVAEKA | failed
MNHASDLILIGSTLLLALAAHAVGQKVHVPRVTLLLLLGALAGPDLLDLLPDNADQSFSLITQLTLAMVGFLLGERMSARDLRQGKEALIVSLAVTLLTAAAVILAVWAVTGNLPAALLLGGIATATAPAATLDVLREAGANGPLTRLVFQVVAIDDAWGAILFSVLLVAAGLLLGNGDLSGPTAMLHGLWEVAGSVLLGMVLGFPMAWLTGRLRPGEPMLLESAGFVFVAAGLASWFGLSYLLTCMTLGIVVANRARHHVRPFRSIEGISEPFLALFFFMAGYQLDWLALPTLGALGLAYVLARIGGRLAGGYLGGLLAGSAPETRQRIGACLMPQAGVALGLALVATERLPELGYILPLVIGATVVFELIGPPMTLLQLRKAGETGQGYQEEPDE | failed
MNHPIVGLIAAVVLAIGVVELHLWLPAIQSVSPLLISIGVGILVSHILPARCKEPLAPGLNIAKGSILRVAIVLYGFNITLQALSQVGIYGLFSAVTMVSVILFVGIWAGTKLFKLDKEQAILVAVGSAICGAAAVAAMEPIIKAKPHKVITAISTVVVFGTLSMLLMPLVFQFFDINEAQYGLWVGVSVHEVAQVVVAGDSVSSNAAHMAVLEKMLRVVLLVPVLLTFAVWMRQKSKGSDKESGDNKVSVPWFAFLFIGAIIINSLNWIPDDVTTAFTAAATYLLCIAMTALGMLTHISVIKQGGAKAFALAALLFVSLFITGYLLAQFA | failed
MNHPYRWVIVAAGGVLGCVAAGAMFSLPVLIRPMSQDTGWSVTGISTAMTIGFLAMAAASMVWGNLSDRFGPRPVVLTGSVVLAASLALGSRATSLIEFQLLFGALVGAATAAVFAPMMACVTGWFDTGRGLAVSLVSAGMGMAPLTMAPLAAWLVTIHDWRGAMLIISAITAALMIPAALLVRRPPALEPGGAEGAWADAQDDMTLRQAVRSPQFVTLLLANFFCCATHSGPIFHTVSYAVTCGIPMIAATSIYSVEGLSGMFGRLGFGLAGDRFGAQRVLVIGLLAQAFGVLAYAFVGGLGGFYAVAVAVGFIYAGTMPLYAVIIRENFPLRMMGTIVGGTAMAGSLGMSTGPVLGGLIYDAYDSYAPMYVASCGMGLAAMLILATFRPFPQRRGELAVA | failed
MNHRHYGNFMAALSFVIWGLLPVYYRFLHNAAMDELLAWRIIGSVPVGILIVYAVTRHWPNWSQVWRDKKSLWYTFVASSLMCISWSAFTWALTHHRVIDASLGFFIGPLVSVALGVFVLGDKLSKGQLIAILLATCGVLYQVFQYGQLPFVALTMGLFFALYGLYKKKINYDWSTTLFIEALVLAPFALGYLLFKQWTTGELASSVDTTTLLLYFGSAPITILPLIFYSIAIRITNLSTVGLMQYIEPSLQFILAVVFFGELFDDVKAVTFAFIWVGLLLTIFEGVAKGIKRKKLANHSV | failed
MNHSNLTILSVCSNFVIVVLKLIVGFFTGSVAVISEGIHSSMDLFASIITFFSIRISNQPADEDHPYGHGKAENIAGTIETLLIFVAGIWIIVESVNKLVNPHEIRFPALGIMVMLFGAIVNIIVSRIIKKAADEANSVAMKSNALHLYTDVFTSLGIALSLFLVYITGWLWLDPVIAILTAFYIMYEAYKLLKESFPPLMDKRLSADEEEAIKQIILAHKTRFIEFHDFRSRRAGAEEYIDFHLVVSSSMTIESAHSLCDEIEAEIMNFYAKAEVLIHLEPEEERVLTRI | failed
MNIELFIQRAEALHKQLADLYQTASVLPWIPPDLLPQAFKELYSNSKLVQLAAEELYHQNEELIQTRSLLEAERQHYHDLFEFAPDGYLVTNAEGIIQEANLTATKLFNAPKHILVDRSVINFIRLEERESFHCELNQLFQTDKAKKLIVRLHQFHGESFDALLTISVVRSQNGKIKSLHWLLSHINENQQQSLGLVNHENYLSQNRPVYVYAKGENIPLNPLVIWYVRQGLVKLSTFCETGEEVLTGLAKTHMVFGSSMTKLPIYQATALADVELVSINFAEIAVSQMLSHILLPKINQQLQQKESFLVITGRRKIEDRLYHLLQFLKQEIGEPVGEKTRLSVRFTHEDIASACCTTRVTITRLMGKLQQQGLISFDSKKHMIINKRLEDRE | failed
MNIEQQLYDVVKQLIEQRYPNDWGGAAAIRVEDGTIYTSVAPDVINASTELCMETGAILEAHKFQKKVTHSICLARENEHSELKVLSPCGVCQERLFYWGPEVQCAITNAKQDIIFKPLKELQPYHWTEAYHDEMVKEWSTR | not failed
MNIFEQTPPNRRRYGLAAFIGLIAGVVSAFVKWGAEVPLPPRSPVDMFNAACGPESLIRAAGQIDCSRNFLNPPYIFLRDWLGLTDPNAAVYTFAGHVFNWVGVTHIIFSIVFAVGYCVVAEVFPKIKLWQGLLAGALAQLFVHMISFPLMGLTPPLFDLPWYENVSEIFGHLVWFWSIEIIRRDLRNRITHEPDPEIPLGSNR | failed
MNIKREQVFVWSGKIRLFHWINVIAILLLIVIGVVILNGKLFGVSTDGKILLKTIHVIVGYVFATNLIFRLIIAFIGKTYEKWGKMLPFNKGFTEELIEFTQQKRLTYKGHNPAGKLMVLALLSFMSVQMISGLVIAGTDIYYPPFGNYFIQSIAIDKDNLAVIKPYSKENIDEASYQAMRDFRKPFITAHVYSFYCLLFLIPLHIIGVIVAERRERSAIVSAMFNGYKYLPKDEPTDH | failed
MNILKMKKTGIFLGGVLFGTVGVKILSSDCVKKTCTRATAGALKVKDSVLETTTKIQENVEDILAEAKEINEQEDLSTSKVNVVQDTLKCEQEVLKTETIKTVEDTNSNSIKCEEIKDNVIEEKNSTCTTE | failed
MNILKRKTPQNIRFGEQKPKYYFHIRAFAVLLGVFFLLGVYFNWQSILEKMDDKPISAFALVGQNTFTTADDIKESLLKMGELKGFWGQDVAPIQEQIEALPWVKGAIVRKMWPNRLSIWVSEYQPVAFWNQNQFVTLDGIVFQLPSVRLTAKNLPYLGGPDYQSLKVIETWNQIYINLKSNNIMAKGINIDDRGAWQVQLDNDIVLKLGRGDWKSKLERFVTIYPQIDVPENKKIDYIDLRYTAGAAVGMVDR | failed
MNILLAGGSGLIGQELVRGMGEEHHYTVLGRDKDAIQKIFTTKASSLSWDELNTQDASRFDAVINLCGVNIAISRWTPKIKEEIISSRVQTTENLLHWILQQNAKPRFYCANAVGIYGLQENGDATDLTEDTAINWEHPKDYLSEVGIRWQQALQKAEEAGLPVTSTRFGVVLKKGKGFLGKLYPSFICGLGSTIGDGRQYLSWIDSEDLVNAYRFLLNHPEITGPVNVTSPNPCMQREFAKAFAKSLHRPLLLWTPAFIIHLLFGEMGDCLINHGQKVKPKRLLEAGFEFKWPDIEKALKHQYSAILEHHHHHH | not failed
MNIMRTAMLLAFMTALFMGVGYLVGGSNGMVIALLMAGGLNFFSYWNSDKIVLRMYGAREVDQHSSPVYYKIVSDLARRASLPQPKVYIIDNAQPNAFATGRNPQNAAVAASTGLLNQLSAEEVAGVMAHELAHIEHRDTLTMTLTATIAGAISMLGNFAFFMGGQRHSSENSHSTGAIGGLLALFVAPFAAMLVQMAISRTREYAADRRGAEICGNPLWLASALSKIAGGGHTVYNEEAEHNPATAHMFIINPLRGEGADSLFSTHPATANRIAALRRQAEEMKGARVENMGWNEKIGLHKKSSDFRDLNSGAQTSVFNEESTVQRIKKRPSWLRYGDSKRPRS | failed
MNINVKDIIADSHLAFLNQENETALRLARQAISLAPDNPDAYRCAGNACMSLDRYDEAIEYYRTAVKYDPDNGNRYYDLGFALASAERFSDALKNLAKAEELGCTPENLVQLYNLLGILCFDIGRYDDALVNLNKAEKLIGIDVDILKRKAVIYGIKNDIKNGLMTANQIKLVTPSEYTGYQIAFKLLVQAKRLDEAEKELERARKYASPTMDFYFDYMTLELEKYKTDNDKEHFKTALGMIEKALKTVKPTVKEVVESYINAAEIYLQLEDADRAIECLNAAQNPIWAYNNGFDVVVRNYEPVTLTEYDIEDMIEADRKKIEEQFGDYGFEEMVESIEPDEEGNRDYLTVIEDEVKSDAKEDSEVYKLDESEKVEYSSDNIDQINRLYVGAYTVKKDFEKVIEYSRKLQASENTYSVYLGKYTEANAMKELGLPDFAAKYEEIIKFFRNAMIKDPTDLTAVTFRVQCYIDIGQYDEAEQLCSLLTKEVRNSFMEKIKKAKSGGEQH | failed
MNIQDYPDRDMLAIDLANHLAGELEATLFTHDSATLAVAGGTTPGPVFDVLCAADLDWHRVMVLPTDERCVPQDHSRANARLIAERLLVNRAASARYLPLYLPGAEPEDCLAEVEALLTPALPLSVLVLGMGEDMHTASLFAGMPGLAAALDADAPALAVARPETQPENRITLTAPVLNGALSKHLIIYGAAKRKALERAMSMHPEEAPIAAVLDGITVHW | failed

Reference: a protein production outcome set (Wang et al. 2014)
